From patent publication US11844843 (DYNE THERAPEUTICS, dated 2023)

T1: recombinant cynomolgus monkey (Macaca fascicularis) TfR1 (cynomolgus monkey (Macaca fascicularis), UniProt Q5RDH6 87-760 (Pongo abelii entry), limits assumed)
T1 construct: Recombinant protein; also called cTfR1; cyTfR1
T1 chain: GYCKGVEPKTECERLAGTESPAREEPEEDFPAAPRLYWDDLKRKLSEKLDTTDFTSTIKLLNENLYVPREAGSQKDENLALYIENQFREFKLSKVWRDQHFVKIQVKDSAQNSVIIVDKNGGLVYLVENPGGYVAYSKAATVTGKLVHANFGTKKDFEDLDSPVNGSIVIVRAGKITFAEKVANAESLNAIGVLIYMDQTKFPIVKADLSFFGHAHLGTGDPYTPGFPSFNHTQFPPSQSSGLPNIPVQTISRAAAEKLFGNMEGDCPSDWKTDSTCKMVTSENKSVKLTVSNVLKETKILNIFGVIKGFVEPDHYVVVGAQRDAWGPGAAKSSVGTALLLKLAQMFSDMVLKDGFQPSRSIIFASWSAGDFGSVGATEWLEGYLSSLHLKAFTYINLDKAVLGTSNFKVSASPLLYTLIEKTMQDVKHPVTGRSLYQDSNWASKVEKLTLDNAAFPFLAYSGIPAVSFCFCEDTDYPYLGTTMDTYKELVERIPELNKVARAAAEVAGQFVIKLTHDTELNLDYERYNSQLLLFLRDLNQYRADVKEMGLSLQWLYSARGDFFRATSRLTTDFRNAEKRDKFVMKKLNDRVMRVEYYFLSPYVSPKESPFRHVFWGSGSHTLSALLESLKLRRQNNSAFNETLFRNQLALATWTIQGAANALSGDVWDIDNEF


Legend:
[1] = biological target: T2, recombinant human TfR1 (transferrin receptor protein 1) (human, UniProt P02786 89-760); experiment: Biacore, d0; TfR1 species not stated
T2 construct: Recombinant protein in SPR and ELISA; they were assigned to this molecule; also called hTfR1; huTfR1

[2] = biological target: T2, recombinant human TfR1 (transferrin …); experiment: Biacore, d25; TfR1 species not stated
[3] = biological target: T2, recombinant human TfR1 (transferrin …); experiment: ELISA on hTfR1, unconjugated Fab, % normalized RFUs
[4] = biological target: T1, recombinant cynomolgus monkey (Macaca …); experiment: ELISA on cTfR1, unconjugated Fab, % normalized RFUs
[5] = biological target: T2, recombinant human TfR1 (transferrin …); experiment: kinetic analysis (Biacore), Table 7; TfR1 species not stated
[6] = biological target: T2, recombinant human TfR1 (transferrin …); experiment: Table 14, unconjugated Fab, d9 (after 9 days at 40 C); method not named
[7] = biological target: T1, recombinant cynomolgus monkey (Macaca …); experiment: as above
[8] = biological target: T2, recombinant human TfR1 (transferrin …); experiment: ELISA, recombinant TfR1 coated, unconjugated Fab (row 'Fab binding affinity ELISA')
[9] = biological target: T1, recombinant cynomolgus monkey (Macaca …); experiment: as above
[10] = biological target: T2, recombinant human TfR1 (transferrin …); experiment: Table 14, unconjugated Fab, d0; method not named (values equal ELISA row of Table 13)
[11] = biological target: T1, recombinant cynomolgus monkey (Macaca …); experiment: as above
[12] = biological target: T1, recombinant cynomolgus monkey (Macaca …); experiment: ELISA on plate-coated recombinant cTfR1, fluorescent anti-(H+L) IgG-A488 detection, % normalized RFUs
Protocol: To measure binding of humanized anti-TfR antibodies to TfR1, ELISAs were conducted. High binding, black, flat bottom, 96 well plates (Corning #3925) were first coated with 100 μL/well of recombinant huTfR1 at 1 μg/mL in PBS and incubated at 4° C. overnight. Wells were emptied and residual liquid was removed. Blocking was conducted by adding 200 μL of 1% BSA (w/w) in PBS to each well. Blocking was allowed to proceed for 2 hours at room temperature on a shaker at 30) rpm. After blocking, liquid was removed and wells were washed three times with 300 μL of TBST. Anti-TfR1 antibodies were then added in 0.5% BSA/TBST in triplicate in an 8 point serial dilution (dilution range 5 μg/mL-5 ng/mL). A positive control and isotype controls were also included on the ELISA plate. The plate was incubated at room temperature on an orbital shaker for 60 minutes at 300 rpm, and the plate was washed three times with 300 μL of TBST. Anti-(H+L)IgG-A488 (1:500) (Invitrogen #A11013) was diluted in 0.5% BSA in TBST, and 100 μL was added to each well. The plate was then allowed to incubate at room temperature for 60 minutes at 300 rpm on orbital shaker. The liquid was removed and the plate was washed four times with 300 μL of TBST. Absorbance was then measured at 495 nm excitation and […] (with a 15 nm bandwidth) on a plate reader. Data was recorded and analyzed for $EC50$. […]

[13] = biological target: T2, recombinant human TfR1 (transferrin …); experiment: ELISA on plate-coated recombinant hTfR1, fluorescent anti-(H+L) IgG-A488 detection, % normalized RFUs
Protocol: To measure binding of humanized anti-TfR antibodies to TfR1, ELISAs were conducted. High binding, black, flat bottom, 96 well plates (Corning #3925) were first coated with 100 μL/well of recombinant huTfR1 at 1 μg/mL in PBS and incubated at 4° C. overnight. Wells were emptied and residual liquid was removed. Blocking was conducted by adding 200 μL of 1% BSA (w/w) in PBS to each well. Blocking was allowed to proceed for 2 hours at room temperature on a shaker at 30) rpm. After blocking, liquid was removed and wells were washed three times with 300 μL of TBST. Anti-TfR1 antibodies were then added in 0.5% BSA/TBST in triplicate in an 8 point serial dilution (dilution range 5 μg/mL-5 ng/mL). A positive control and isotype controls were also included on the ELISA plate. The plate was incubated at room temperature on an orbital shaker for 60 minutes at 300 rpm, and the plate was washed three times with 300 μL of TBST. Anti-(H+L)IgG-A488 (1:500) (Invitrogen #A11013) was diluted in 0.5% BSA in TBST, and 100 μL was added to each well. The plate was then allowed to incubate at room temperature for 60 minutes at 300 rpm on orbital shaker. The liquid was removed and the plate was washed four times with 300 μL of TBST. Absorbance was then measured at 495 nm excitation and […] (with a 15 nm bandwidth) on a plate reader. Data was recorded and analyzed for $EC50$. […] ELISA measurements were conducted using cynomolgus monkey (Macaca fascicularis) TfR1 (cTfR1) according to the same protocol described above for hTfR1, and results are shown in FIGS. 9B, 9D, and 9F.

[14] = biological target: T2, recombinant human TfR1 (transferrin …); experiment: Table 14, Fab-ASO300 conjugate; method not named
[15] = biological target: T1, recombinant cynomolgus monkey (Macaca …); experiment: Table 14, Fab-ASO300 conjugate; method not named
[16] = biological target: T2, recombinant human TfR1 (transferrin …); experiment: ELISA on hTfR1, Fab conjugated to DMPK-targeting oligonucleotide, % normalized RFUs
[17] = biological target: T1, recombinant cynomolgus monkey (Macaca …); experiment: ELISA on cTfR1, Fab conjugated to DMPK-targeting oligonucleotide, % normalized RFUs
[18] = biological target: T2, recombinant human TfR1 (transferrin …); experiment: ELISA, recombinant TfR1 coated, Fab-ASO300 conjugate (row 'Conjugate binding affinity ELISA')
[19] = biological target: T1, recombinant cynomolgus monkey (Macaca …); experiment: as above

| Binder | Kd [1] [nM] | Kd [2] [nM] | EC50 [3] [nM] | EC50 [4] [nM] | Kd [5] [nM] | Binding affinity [6] [nM] | Binding affinity [7] [nM] | EC50 [8] [nM] | EC50 [9] [nM] | Binding affinity [10] [nM] | Binding affinity [11] [nM] | EC50 [12] [nM] | EC50 [13] [nM] | DMPK oligo conjugate binding [14] [nM] | DMPK oligo conjugate binding [15] [nM] | EC50 [16] [nM] | EC50 [17] [nM] | EC50 [18] [nM] | EC50 [19] [nM] |
| --- | --- | --- | --- | --- | --- | --- | --- | --- | --- | --- | --- | --- | --- | --- | --- | --- | --- | --- | --- |
| humanized anti-TfR Fab 3A4 VH3 (N54S)/Vκ4 (Fab, V domains shown, also called 3A4 (VH3-N54S/Vk4)) VH: EVQLVQSGSELKKPGASVKVSCTASGFNIKDDYMYWVRQPPGKGLEWIGWIDPESGDTEYASKFQDRVTVTADTSTNTAYMELSSLRSEDTAVYYCTLWLRRGLDYWGQGTLVTVSS VL: DIVMTQSPLSLPVTPGEPASISCRSSKSLLHSNGYTYLFWFQQRPGQSPRLLIYRMSNLASGVPDRFSGSGSGTDFTLKISRVEAEDVGVYYCMQHLEYPFTFGGGTKVEIKR | 1.34 | 1.39 | 1.9 | > 100 | 1.34 | 0.65 | 248 | 1.6 | 398 | 1.6 | 398 | > 100 | 1.9 |  |  |  |  |  |  |
| conjugate of humanized anti-TfR Fab 5H12 VH5 (C33Y)/Vκ4 with DMPK-targeting oligonucleotide ASO300 (Fab, V domains shown, oligonucleotide ASO300 conjugated to the Fab via linker; residue and chain not stated) VH: QVQLVQSGAEVKKPGASVKVSCKASGYSFTDYYINWVRQAPGQGLEWMGWIYPGSGNTRYSERFKGRVTITRDTSASTAYMELSSLRSEDTAVYYCAREDYYPYHGMDYWGQGTLVTVSS VL: DIVMTQSPDSLAVSLGERATINCRASESVDGYDNSFMHWYQQKPGQPPKLLIFRASNLESGVPDRFSGSGSGTDFTLTISSLQAEDVAVYYCQQSSEDPWTFGQGTKLEIKR |  |  |  |  |  |  |  |  |  |  |  |  |  | 13.9 | 13.9 | 25.5 | 2.8 | 23.7 | 3.3 |
